Consider 4 molecules from publication PMC9541495, “Understanding the interaction of 14‐3‐3 proteins with hDMX and hDM2: a structural and biophysical study” (The Febs Journal, 2022).

[ ]: non-standard residue; d: D form. pS = N[C@@H](COP(=O)(O)O)C(=O)O

Common to all, as to conditions: both partners purified
In experiment [1] the target is T1, 14‐3‐3η (human, UniProt Q04917 1-246).
T1 construct: 14-3-3 eta, human, full-length protein from the pProEx HTb-His-14-3-3 construct; Captured on an NTA chip in SPR; source: E. coli BL21(DE3), purified (Ni2+-NTA, dialysis)
T1 sequence (looked up): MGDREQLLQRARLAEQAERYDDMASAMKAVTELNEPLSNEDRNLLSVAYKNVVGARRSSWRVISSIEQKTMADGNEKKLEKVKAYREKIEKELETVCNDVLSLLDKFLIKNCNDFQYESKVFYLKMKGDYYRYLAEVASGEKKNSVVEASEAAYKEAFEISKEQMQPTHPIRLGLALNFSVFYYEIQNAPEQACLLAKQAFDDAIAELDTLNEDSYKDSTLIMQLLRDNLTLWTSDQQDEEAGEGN
Nature of the experiment: SPR; 14-3-3η immobilised on an NTA sensor chip (Ni2+ capture and amine coupling, about 2000 RU); acetylated peptides injected, 11 serial dilutions from 10x the FA Kd; 25 °C; Biacore T200; multicycle kinetics fitted to a Langmuir model, Kd from steady state dose-response. In general terms: SPR reads the build-up and loss of mass on a sensor chip optically.

Experiment [2] addresses T1, 14‐3‐3η. Put plainly: ITC; acetylated peptide in the syringe titrated into 14-3-3η in the cell; 25 °C; 25 mM HEPES pH 7.5, 100 mM NaCl, 10 mM MgCl2, 0.5 mM TCEP; MicroCal iTC200. (In general: In ITC the heat of successive injections is recorded.)
The target in experiment [3] is T2, FAM‐Ahx‐hDMX_(335‐373) ^pSer342/pSer367 (human, phosphoserine at 342 and at 367; N-terminal FAM-Ahx (5,6-carboxyfluorescein on an aminohexanoic acid linker); C-terminal amide).
T2 construct: hDMX (human double minute 4 protein, hDM4), human, residues 335-373; Tracer form used in the FA assays; source: synthetic peptide (Fmoc SPPS on Rink amide ProTide resin, HPLC purified)
T2 peptide: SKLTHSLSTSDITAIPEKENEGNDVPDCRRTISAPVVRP
Nature of the experiment: fluorescence polarisation; fluorescence anisotropy, direct titration: 14-3-3 protein titrated (1/2 dilution series) against 50 nM FAM-Ahx tracer peptide; 10 mM HEPES, 150 mM NaCl, 0.1% Tween 20, 0.1% BSA, pH 7.4; 384 well plates, triplicates; protein concentration as 14-3-3 monomer; 1:1 fit, biphasic curves fitted as two separate 1:1 events (Kd1, Kd2). For orientation: Fluorescence polarisation rises when a labelled molecule tumbles more slowly, as on binding a larger partner.

B1: Ac‐hDMX_(361‐374) ^pSer367 (peptide)
peptide: Ac-DCRRTI[pS]APVVRPK-NH2
SMILES: CC[C@H](C)[C@H](NC(=O)[C@@H](NC(=O)[C@H](CCCNC(=N)N)NC(=O)[C@H](CCCNC(=N)N)NC(=O)[C@H](CS)NC(=O)[C@H](CC(=O)O)NC(C)=O)[C@@H](C)O)C(=O)N[C@@H](COP(=O)(O)O)C(=O)N[C@@H](C)C(=O)N1CCC[C@H]1C(=O)N[C@H](C(=O)N[C@H](C(=O)N[C@@H](CCCNC(=N)N)C(=O)N1CCC[C@H]1C(=O)N[C@@H](CCCCN)C(N)=O)C(C)C)C(C)C
notes: Acetylated form used for ITC, SPR and crystallography; source: synthetic peptide (Fmoc SPPS, HPLC purified)
In the experiment with 14‐3‐3η [1], B1 showed a Kd of 189 nM, a koff of 0.121 s⁻¹ and a kon of 389000 M⁻¹ s⁻¹. In the experiment with 14‐3‐3η [2], binding was characterised by a dissociation constant (Kd) of 870 ± 95 nM, the dH is -3.85 ± 0.0478 kcal/mol and the “stoichiometry N” value is 1.28.

B2: Ac‐hDMX_(335‐349) ^pSer342 (peptide)
peptide: Ac-SKLTHSL[pS]TSDITAI-NH2
SMILES: CC[C@H](C)[C@H](NC(=O)[C@H](C)NC(=O)[C@@H](NC(=O)[C@@H](NC(=O)[C@H](CC(=O)O)NC(=O)[C@H](CO)NC(=O)[C@@H](NC(=O)[C@H](COP(=O)(O)O)NC(=O)[C@H](CC(C)C)NC(=O)[C@H](CO)NC(=O)[C@H](Cc1c[nH]cn1)NC(=O)[C@@H](NC(=O)[C@H](CC(C)C)NC(=O)[C@H](CCCCN)NC(=O)[C@H](CO)NC(C)=O)[C@@H](C)O)[C@@H](C)O)[C@@H](C)CC)[C@@H](C)O)C(N)=O
notes: hDMX (human double minute 4 protein, hDM4), human, residues 335-349; Acetylated form used for ITC and SPR; source: synthetic peptide (Fmoc SPPS, HPLC purified)
With B2, in the experiment with 14‐3‐3η [1], binding was characterised by a dissociation constant (Kd) of 37000 nM. In the experiment with 14‐3‐3η [2], the Kd stood at 21000 ± 3000 nM, the dH is -5.11 ± 0.239 kcal/mol and the “stoichiometry N” value is 0.72.

B3: 14‐3‐3β (natural protein, human, UniProt P31946 1-246, looked up)
chain: MTMDKSELVQKAKLAEQAERYDDMAAAMKAVTEQGHELSNEERNLLSVAYKNVVGARRSSWRVISSIEQKTERNEKKQQMGKEYREKIEAELQDICNDVLELLDKYLIPNATQPESKVFYLKMKGDYFRYLSEVASGDNKQTTVSNSQQAYQEAFEISKKEMQPTHPIRLGLALNFSVFYYEILNSPEKACSLAKTAFDEAIAELDTLNEESYKDSTLIMQLLRDNLTLWTSENQGDEGDAGEGEN
notes: 14-3-3 beta, human, full-length protein from the pProEx HTb-His-14-3-3 construct; Written as the protomer; tag removal is told only for the ∆C proteins; source: E. coli BL21(DE3), purified (Ni2+-NTA, dialysis)
As to B3, the “Kd1 (first binding event)” value in experiment [3] stood at 0.026 ± 0.099 µM.

B4: Ac‐hDMX_(335‐373) ^pSer342/pSer367 (peptide)
peptide: Ac-SKLTHSL[pS]TSDITAIPEKENEGNDVPDCRRTI[pS]APVVRP-NH2
SMILES: CC[C@H](C)[C@H](NC(=O)[C@H](CC(=O)O)NC(=O)[C@H](CO)NC(=O)[C@@H](NC(=O)[C@H](COP(=O)(O)O)NC(=O)[C@H](CC(C)C)NC(=O)[C@H](CO)NC(=O)[C@H](Cc1c[nH]cn1)NC(=O)[C@@H](NC(=O)[C@H](CC(C)C)NC(=O)[C@H](CCCCN)NC(=O)[C@H](CO)NC(C)=O)[C@@H](C)O)[C@@H](C)O)C(=O)N[C@H](C(=O)N[C@@H](C)C(=O)N[C@H](C(=O)N1CCC[C@H]1C(=O)N[C@@H](CCC(=O)O)C(=O)N[C@@H](CCCCN)C(=O)N[C@@H](CCC(=O)O)C(=O)N[C@@H](CC(N)=O)C(=O)N[C@@H](CCC(=O)O)C(=O)NCC(=O)N[C@@H](CC(N)=O)C(=O)N[C@@H](CC(=O)O)C(=O)N[C@H](C(=O)N1CCC[C@H]1C(=O)N[C@@H](CC(=O)O)C(=O)N[C@@H](CS)C(=O)N[C@@H](CCCNC(=N)N)C(=O)N[C@@H](CCCNC(=N)N)C(=O)N[C@H](C(=O)N[C@H](C(=O)N[C@@H](COP(=O)(O)O)C(=O)N[C@@H](C)C(=O)N1CCC[C@H]1C(=O)N[C@H](C(=O)N[C@H](C(=O)N[C@@H](CCCNC(=N)N)C(=O)N1CCC[C@H]1C(N)=O)C(C)C)C(C)C)[C@@H](C)CC)[C@@H](C)O)C(C)C)[C@@H](C)CC)[C@@H](C)O
notes: hDMX (human double minute 4 protein, hDM4), human, residues 335-373; Acetylated form used for ITC, SPR and crystallography; source: synthetic peptide (Fmoc SPPS on Rink amide ProTide resin, HPLC purified)
With B4, in the experiment with 14‐3‐3η [1], the affinity, expressed as Kd, was 8.6 nM; the koff turned out to be 0.0048 s⁻¹; the kon is 1.51e+06 M⁻¹ s⁻¹. Also, in the experiment with 14‐3‐3η [2], the Kd worked out at 14 ± 10 nM, the dH is -5.28 ± 0.167 kcal/mol and the “stoichiometry N” value was determined as 0.94.

As usually defined, the Kd is the concentration at which binding is half-saturated. Read a low Kd as a tighter complex. Usually koff stands for a measure of how fast the partners let go of each other. High values mean a short-lived complex, low ones a long-lived complex. As a reminder, the kon is a measure of how fast the partners come together. Low values mean slower complex formation, high ones faster complex formation. As a reminder, the stoichiometry N is a count of units in the complex or per binding partner.
